The results in this text go back to US20240116985A1 (published 2024).

In assay [1] the target is T1, full-length beta-Catenin (Uniprot ID P35222) (Homo sapiens (Human), UniProt P35222 2-781).
T1 construct: The fluorescence polarization protocol says only 'full-length'; also called bCat; B-Catenin
T1 sequence: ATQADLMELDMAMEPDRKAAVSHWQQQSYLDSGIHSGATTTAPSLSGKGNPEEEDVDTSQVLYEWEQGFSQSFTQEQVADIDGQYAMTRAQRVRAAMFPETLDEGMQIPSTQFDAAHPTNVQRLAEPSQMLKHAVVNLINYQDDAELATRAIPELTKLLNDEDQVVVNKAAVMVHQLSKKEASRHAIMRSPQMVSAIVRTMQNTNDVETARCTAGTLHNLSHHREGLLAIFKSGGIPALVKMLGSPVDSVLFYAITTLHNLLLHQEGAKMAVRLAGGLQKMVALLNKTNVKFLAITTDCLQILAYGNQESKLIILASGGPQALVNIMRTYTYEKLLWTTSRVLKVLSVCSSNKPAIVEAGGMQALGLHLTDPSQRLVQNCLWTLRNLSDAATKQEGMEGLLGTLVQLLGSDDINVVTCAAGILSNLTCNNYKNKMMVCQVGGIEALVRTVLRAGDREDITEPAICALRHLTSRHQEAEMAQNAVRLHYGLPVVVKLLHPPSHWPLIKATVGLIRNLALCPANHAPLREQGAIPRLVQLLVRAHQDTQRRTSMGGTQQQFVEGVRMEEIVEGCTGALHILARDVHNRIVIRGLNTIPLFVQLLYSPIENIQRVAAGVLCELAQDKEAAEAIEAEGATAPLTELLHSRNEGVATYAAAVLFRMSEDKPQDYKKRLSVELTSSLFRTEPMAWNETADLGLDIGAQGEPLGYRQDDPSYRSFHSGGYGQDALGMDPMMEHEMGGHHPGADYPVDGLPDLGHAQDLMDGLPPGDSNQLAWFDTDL
In words: fluorescence polarization competition; full-length beta-catenin + 5FAM-TCF4(10-53) probe; peptide titrated. The procedure:
The plate was incubated protected from light for 60 minutes at 20° C. prior to read. Reads were performed on a CLARIOstar plate reader (BMG Labtech) in duplicate, and data were fitted to a 1:1 binding model with hill slope using an in-house script. All provided concentrations are final concentrations.

The target of assay [2] is T2, full-length beta-Catenin (Uniprot ID P35222) (Homo sapiens (Human), UniProt P35222 2-781).
T2 construct: Also used here for the endogenous beta-catenin of the DLD1 TCF reporter cells; also called bCat; B-Catenin
T2 sequence: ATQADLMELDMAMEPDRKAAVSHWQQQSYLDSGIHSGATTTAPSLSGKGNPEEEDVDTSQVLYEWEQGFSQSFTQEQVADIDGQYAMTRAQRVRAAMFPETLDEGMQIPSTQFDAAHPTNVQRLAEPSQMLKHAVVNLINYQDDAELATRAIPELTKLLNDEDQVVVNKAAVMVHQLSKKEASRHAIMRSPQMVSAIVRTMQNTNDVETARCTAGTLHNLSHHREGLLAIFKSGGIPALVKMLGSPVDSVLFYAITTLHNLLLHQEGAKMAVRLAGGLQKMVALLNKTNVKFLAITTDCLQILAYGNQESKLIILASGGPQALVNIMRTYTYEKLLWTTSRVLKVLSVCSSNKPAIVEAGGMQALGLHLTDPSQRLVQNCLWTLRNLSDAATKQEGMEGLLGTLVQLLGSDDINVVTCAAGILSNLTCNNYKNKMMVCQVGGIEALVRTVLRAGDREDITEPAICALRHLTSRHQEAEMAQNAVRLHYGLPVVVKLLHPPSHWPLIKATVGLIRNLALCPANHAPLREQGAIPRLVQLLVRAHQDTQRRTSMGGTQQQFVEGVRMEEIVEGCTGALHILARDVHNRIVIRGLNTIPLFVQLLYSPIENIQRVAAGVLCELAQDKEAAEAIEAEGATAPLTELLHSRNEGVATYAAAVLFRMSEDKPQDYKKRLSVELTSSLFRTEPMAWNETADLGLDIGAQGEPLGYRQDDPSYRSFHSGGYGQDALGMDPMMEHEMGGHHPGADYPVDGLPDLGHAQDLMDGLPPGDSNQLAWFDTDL
In words: fluorescence polarization competition; full-length beta-catenin, competitor 5FAM-TCF4(10-53) probe. Put shortly:
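Plate incubated 60 minutes at 20° C. protected from light before reading. Concentrations given are final.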

The target of assay [3] is T3, Bcat-Halo (UniProt P35222 1-781).
T3 construct: Construct transfected into HEK293 cells for NanoBRET; not shown: HaloTag fusion partner
T3 sequence (looked up): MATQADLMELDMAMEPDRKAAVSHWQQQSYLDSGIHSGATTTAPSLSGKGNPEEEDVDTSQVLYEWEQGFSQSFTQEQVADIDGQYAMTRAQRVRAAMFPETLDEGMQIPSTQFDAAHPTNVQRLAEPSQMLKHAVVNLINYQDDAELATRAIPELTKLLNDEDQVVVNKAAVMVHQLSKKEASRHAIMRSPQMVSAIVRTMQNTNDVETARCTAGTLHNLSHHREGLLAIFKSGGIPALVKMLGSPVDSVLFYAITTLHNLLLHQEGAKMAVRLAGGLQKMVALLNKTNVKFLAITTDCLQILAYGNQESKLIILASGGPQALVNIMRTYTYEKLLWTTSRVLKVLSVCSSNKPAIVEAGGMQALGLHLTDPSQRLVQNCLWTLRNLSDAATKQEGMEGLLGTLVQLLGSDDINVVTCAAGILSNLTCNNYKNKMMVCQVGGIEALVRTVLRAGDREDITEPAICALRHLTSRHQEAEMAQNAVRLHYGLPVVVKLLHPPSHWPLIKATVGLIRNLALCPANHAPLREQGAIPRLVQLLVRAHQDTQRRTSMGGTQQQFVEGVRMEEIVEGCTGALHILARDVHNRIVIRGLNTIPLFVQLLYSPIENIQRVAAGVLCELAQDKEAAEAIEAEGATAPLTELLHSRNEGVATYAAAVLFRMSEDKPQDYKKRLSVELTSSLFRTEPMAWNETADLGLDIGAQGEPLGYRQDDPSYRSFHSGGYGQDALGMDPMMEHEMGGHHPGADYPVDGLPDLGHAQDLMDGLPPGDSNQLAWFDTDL
In words: NanoBRET in HEK293 cells, Bcat-Halo/TCF4-Luc (competitor TCF4-Luc); absolute IC50.

The target of assay [4] is T4, beta-catenin in DLD1 TCF/LEF luciferase reporter cells (UniProt P35222 1-781).
T4 sequence (looked up): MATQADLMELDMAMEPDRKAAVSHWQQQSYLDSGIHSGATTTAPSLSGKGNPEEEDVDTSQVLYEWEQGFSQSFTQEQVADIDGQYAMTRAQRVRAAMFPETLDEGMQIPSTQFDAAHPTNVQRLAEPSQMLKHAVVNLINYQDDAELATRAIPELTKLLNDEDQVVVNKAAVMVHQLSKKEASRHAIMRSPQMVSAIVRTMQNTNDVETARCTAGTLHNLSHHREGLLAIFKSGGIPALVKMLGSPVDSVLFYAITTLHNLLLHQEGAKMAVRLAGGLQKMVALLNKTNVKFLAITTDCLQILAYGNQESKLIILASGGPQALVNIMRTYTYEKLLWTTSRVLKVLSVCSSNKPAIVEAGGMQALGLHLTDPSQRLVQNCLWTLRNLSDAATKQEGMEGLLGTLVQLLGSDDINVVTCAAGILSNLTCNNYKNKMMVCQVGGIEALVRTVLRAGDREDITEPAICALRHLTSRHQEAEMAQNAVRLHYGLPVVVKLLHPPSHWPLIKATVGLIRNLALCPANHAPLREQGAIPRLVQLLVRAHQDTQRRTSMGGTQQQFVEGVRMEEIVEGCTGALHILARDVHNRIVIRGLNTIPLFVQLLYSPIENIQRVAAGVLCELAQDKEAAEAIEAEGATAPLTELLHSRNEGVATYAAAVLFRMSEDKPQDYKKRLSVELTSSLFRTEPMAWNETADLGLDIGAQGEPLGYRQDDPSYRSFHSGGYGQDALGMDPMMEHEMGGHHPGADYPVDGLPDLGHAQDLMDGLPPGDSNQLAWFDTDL
In words: cell-based or functional assay.

In assay [5] the target is B-cat-Halo (beta-catenin HaloTag construct expressed in HEK293 cells) (UniProt P35222 1-781). In words: cell-based or functional assay.

Starred links: 1 amine or outer side, 2 acyl side, 3 side chain; linkers in the order of their positions; H or OH if unused. Positions of bridges follow the written chain, without caps; N, C: chain ends. Non-standard residues stand in square brackets, D forms with d. Primed or numbered codes have the meaning given here. *: point of attachment. PyrS2″ = (S)-3-amino-1-((pent-4-en-1-yloxy)carbonyl)pyrrolidine-3-carboxylic acid (stapling residue), C=CCCCOC(=O)N1CC[C@@](N[*:1])(C(=O)[*:2])C1; B5(16) = 2-amino-2-(pent-4-en-1-yl)hept-6-enoic acid = 2,2-bis(4-pentenyl)glycine (stitching residue), C=CCCCC(CCCC=C)(N[*:1])C(=O)[*:2]; B5(4) = 2,2-bis(4-pentenyl)glycine = 2-amino-2-(pent-4-en-1-yl)hept-6-enoic acid (stitching residue), C=CCCCC(CCCC=C)(N[*:1])C(=O)[*:2]; B5(5) = 2,2-bis(4-pentenyl)glycine, 2-amino-2-(pent-4-en-1-yl)hept-6-enoic acid (stitching residue), C=CCCCC(CCCC=C)(N[*:1])C(=O)[*:2]; Phe(2-Cl) = N[C@@H](Cc1ccccc1Cl)C(=O)O; Bta = N[C@@H](Cc1csc2ccccc12)C(=O)O; αAllylPro = C=CC[C@@]1(C(=O)O)CCCN1; tBuAla = CC(C)(C)C[C@H](N)C(=O)O; S8 = C=CCCCCCC[C@](C)(N)C(=O)O; Ms = CS(=O)(=O)*

B1: I-711 (peptide)
peptide: Ms-[αAllylPro]DI[B5(5)]DEAAFQ[S8]F[Bta]Q-NH2
modifications: staple 1-4, 4-11
notes: Stapled peptide composition; Later-eluting HPLC isomer peak (I-710 is the earlier one); also called MeSO2-PL3-Asp-Ile-B5-Asp-Glu-Ala-Ala-Phe-Gln-S8-Phe-BztA-Gln-NH2
Regarding B1, the EC50 in assay [1] turned out to be 0.088 µM. In assay [2], Ac-[αAllylPro]DL[B5(4)]DEAAFN[S8]F[Bta]N-NH2 (staple 1-4, 4-11; also: olefin E/Z not assigned, earlier-eluting staple isomer, Stapled peptide composition) [I-752] displayed an EC50 of 0.016 µM. The same molecule came in with an IC50 in assay [3] of 9.9 µM. On to Ac-[αAllylPro]DL[B5(4)]DEAAFN[S8]F[Bta]N-NH2 (staple 1-4, 4-11; also: olefin E/Z not assigned, later-eluting staple isomer, Stapled peptide composition) [I-753], for which a half-maximal effect in assay [2] (EC50) was put at 0.014 µM. Besides, the concentration for half-maximal inhibition (IC50) in assay [3] amounted to 10 µM.

B2: I-1019: Ac-PL3-Asp-Npg-B5-Asp-Asp-Ala-Ala-Phe-Ser-PyrS2-2C1F-BztA-Ser-NH2 (peptide)
peptide: Ac-[αAllylPro]D[tBuAla][B5(16)]DDAAFS[PyrS2″][Phe(2-Cl)][Bta]S-NH2
modifications: staple 1-4, 4-11; not fully specified; printed as Ac-PL3-Asp-Npg-B5-Asp-Asp-Ala-Ala-Phe-Ser-PyrS2-2C1F-BztA-Ser-NH2
On to B2, for which the “DLD1 4% Abs IC50” value in assay [4] amounted to 7.8 µM. Moreover, the “NanoBRET Abs IC50” value in assay [5] came out at 9.6 µM.
